Assay [1] addresses T1, PfLDH protein (Plasmodium falciparum, UniProt Q27743 2-316).
T1 construct: also called Plasmodium falciparum LDH protein
The experiment in a line: in situ click bead screen of azide-modified cyclic library C with pfLDH and alkyne-modified hevwh anchor; hit found by triazole formation with the primary ligand.

Assay [2] deals with T2, LISDAELEAIFD (SEQ ID NO:34)-Az4-PEG-Biotin (Plasmodium falciparum, reading uncertain).
T2 peptide: LISDAELEAIFD-{Az4-PEG-biotin}
The assay is described as follows: in situ click bead screen of cyclic library C against LISDAELEAIFD-Az4-PEG-Biotin; hits formed a triazole linkage to the epitope peptide.

The target in assay [3] is T3, GST-PvLDH (Plasmodium berghei, UniProt P84793 1-313).
T3 construct: Printed as 'whole PvLDH' and 'GST-PvLDH'; also called whole PvLDH protein; not shown: glutathione S-transferase (GST) tag
The experiment in a line: ELISA: 5 uM biotinylated ligand on a streptavidin plate, GST-PvLDH overnight, antiGST-HRP detection (FIG. 10).

Assay [4] addresses T1, PfLDH protein. The experiment in a line: ELISA titration of PfLDH protein on the ligand (FIG. 11).

Square brackets hold non-standard residues; d marks the D form. Ends that are not written are not given here. Pra = C#CC[C@H](N)C(=O)O; Az4 = not defined here; PEG = not defined here

B1: YLGHK (SEQ ID NO:14), hit 1 against pan pLDH (peptide)
peptide: YLGHK
modifications: triazole (positions not given here); also: Az4 (azide residue) at position 1, ring closed through triazole, places not given here
notes: Secondary ligand; It was found on bead by in situ click with alkyne-modified hevwh in the presence of pfLDH
Turning to B1, in assay [1], the binding result is “binds”.

B2: KKIHL (SEQ ID NO:6), hit 2 against LDH (peptide)
peptide: [Pra]KKIHL
modifications: triazole (positions not given here); not fully specified (bridges)
notes: On-bead library member; variable region only
Consider B2, for which the binding result in assay [2] is recorded as “binds”.

B3: ELYKY (SEQ ID NO:19), hit 3 against pan pLDH (peptide)
peptide: ELYKY
modifications: triazole (positions not given here); also: Az4 (azide residue) at position 1, ring closed through triazole, places not given here
notes: as for B1
With B3, the binding result in assay [1] was “binds”.

B4: HWSAN (SEQ ID NO:11) peptide, triazole-cyclized (peptide)
peptide: [Pra]HWSAN
modifications: triazole (positions not given here); also: biotinylated in plate assay, construct not described
notes: Variable region only; The exact biotinylated construct used on the streptavidin plate is not described; also called Hit 6
With B4, the binding result in assay [3] and in assay [2] was “binds” in each case.

B5: PLKKG (SEQ ID NO:8), hit 4 against LDH (peptide)
peptide: [Pra]PLKKG
modifications: triazole (positions not given here); not fully specified (bridges)
notes: as for B2
B5: the binding result in assay [2] is given as “binds”.

B6: RGGIL (SEQ ID NO:5), hit 1 against LDH (peptide)
peptide: [Pra]RGGIL
modifications: triazole (positions not given here); not fully specified (bridges)
notes: as for B2
B6: the binding result in assay [2] is reported as “binds”.

B7: ILYWK (SEQ ID NO:7), hit 3 against LDH (peptide)
peptide: [Pra]ILYWK
modifications: triazole (positions not given here); not fully specified (bridges)
notes: as for B2
B7: the binding result in assay [2] is given as “binds”.

B8: RCM cyclized version of the HWSAN (SEQ ID NO:11) peptide (peptide)
peptide: HWSAN
modifications: staple (positions not given here); also: RCM between olefin-bearing non-natural residues, places not given here, biotinylated
notes: also called RCM cyclic peptide; one of the RCM cyclized peptides
As to B8, in assay [4], the EC50 (in general, the concentration needed to bring the measured effect to its halfway point) was 2.5 nM.

These data come from US20220380409A1 (CALIFORNIA INSTITUTE OF TECHNOLOGY, published 2022).
